Results from the nanobody polyreactivity screen of Harvey et al. (2022).

assay: yeast display, Sf9 membrane polyspecificity reagent, FACS + sequencing; frameworks hold sequencing errors
Procedure, shortened: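 Nanobodies came from a synthetic yeast display library in Saccharomyces cerevisiae BJ5465, induced with galactose for 36–48 hours and stained for 1 hour at 4 °C with 10% biotinylated, detergent-solubilized Sf9 membrane reagent. Cells were enriched on streptavidin microbeads and then FACS-sorted, with low and high (top ~1%) gates set on anti-HA fluorescence for expression and streptavidin fluorescence for reagent binding. Each polyreactivity label reflects the gate a clone came from. Genes were amplified by colony PCR, sequenced by MiSeq 2 × 250 and filtered by CDR length.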

Sequence | polyreactivity (PSR sort gate)
QVQLVESGGGLVQAGGSLRLSCAASGYTFSDNAMGWYRPAPGKERELVAAITSGVSTYYADSVKGRFRISRDNAKNSVYLQMNSLNPEDTAVYYCAAEPDTYWYTYDYWGQGTQVTVSS | low polyreactivity
QVQLVESGGGLVQAGGSLRLSCAASGYTFSDNAMGWYRQAPGKEWELVAAISTGGSTNYADSVKGRFTISRDNAKNTVYLQMNSLKPEDTAVYYCATDAWSFGYNYVPLHYDYWGQGTQVTVSS | low polyreactivity
QVQLVESGGGLVQAGGSLRLSCAASGYTFSFYAMGWYRQAPGKERELVAAISSSDGTTYYADSEKGRFTISRDNAKNTVYLQMNSLKPEDTAVYYCNTRYVRQVVGTYTLKTRYYWGQGTQVTVSS | high polyreactivity
QVQLVESGGGLVQAGGSLRLSCAASGYTFSFYAMGWYRQATGKERELVADISRSGGSTYYADSVKGRFTISRDNAKNTVYLQMNSQKPEDTAVYYCAARWPGAYHEYGYLGQGTQVTVSS | high polyreactivity
QVQLVESGGGLVQAGGSLRLSCAASGYTFSYANAMGWYRQAPGKERELVASISSTGGRTYYADSVKGRFTISRDNAKNTVYLQMNSLKPEDTAVYYCASRYWRYGYWGQGTQVTVSS | high polyreactivity
QVQLVESGGGLVQAGGSLRLSCAASGYTFSYNAMGWYRQAPGKERELVARITRGTSTYADSVKGRFTISRDNAKNTVYLQMNSLKPEDTAVYYCAARPGSGRSYTSDYWGQGSQVTVSS | high polyreactivity
QVQLVESGGGLVQAGGSLRLSCAASGYTFSYNTMGWYRQAPGKERELVAAIRLSGGSTYYADSVKGRFTSSRDNAKNTVYLQMNSLKPEDTAVYYCAARQIITKFYTSNGVSYYYWGQGTQETVSS | high polyreactivity
QVQLVESGGGLVQAGGSLRLSCAASGYTFTGYAMGWYRQAPGKERELVAAITSIGGSTYYADSVKGRFTISRDNAKNTVYLQMNSLKPEDTAVYYCAAEGDYVYDMDYWGQGTQVTVSS | low polyreactivity
QVQLVESGGGLVQAGGSLRLSCAASGYTFTVYPMGGYRPAPGKERELVAAIRDGSSTNYADSVKGRFTISRDNAKNTVYLQMISLKPEDTAVYYCNAYSQSWNFYGDGDYWGQGTQVTVSS | low polyreactivity
QVQLVESGGGLVQAGGSLRLSCAASGYTFVLNAMGWYRQAPGKEREMVAAINLDSGNTNYADSVKGRFTISRDNAKNTVYLQMNSLKPEDTAVYYCNTDVKFGGTAYDYWGQGTQVNVSS | low polyreactivity
QVQLVESGGGLVQAGGSLRLSCAASGYTFVNYAMGWYRQAPGKEREFVAAISRSGGSTYYADSVKGRFTISRDNAKNTVYLQMNSLKPEDSAVYYCALRGYPPYKYYYWGQGTQVTVSS | high polyreactivity
QVQLVESGGGLVQAGGSLRLSCAASGYTFVRYAMGWYRQAPGKERELVAAISRSGGSTYYADSVKGRFTISRDNAKNTVYLQMNSLKPEDTAVYYCNAYPYSYYDYDYWGQGTQVTVSS | high polyreactivity
QVQLVESGGGLVQAGGSLRLSCAASGYTFWQYAMGWYRQAPGKERELVAAISGSGGRTYYADSVKGRFTISRDNAKNPVYLQMHSLKPEDTAVYYCAVGYRTPYLSRGGYWGQGTQVTVSS | high polyreactivity
QVQLVESGGGLVQAGGSLRLSCAASGYTFYANAMGWYRQAPGTEREFVASITWSGGSTYYADSVKGRFTISRDNAKNTVYLQMNSLKPEDTAVYYCAAESWFKYDYWGQGTQVTVSS | low polyreactivity
QVQLVESGGGLVQAGGSLRLSCAASGYTFYEYAMGWYRQAPGKERELGAAIRGSGGGTYYADSVKGRFTISRDNAKNTVYLQMNSLKPEDTAVYYCAVKYAYPYAGVSAIRYYYWGQGTQVTVSS | low polyreactivity
QVQLVESGGGLVQAGGSLRLSCAASGYTFYFYAMGWSRQAPGKEREFVAAIRSSGGRTYYADSVKGRFTISRDNAKNTVYLQMNSLKPVDTAVYYCAAAGYYYSVDGAGPRYDYWGQGTQVTVSS | low polyreactivity
QVQLVESGGGLVQAGGSLRLSCAASGYTFYKYAMGWYRQAPGKEREFVADITQSGGSTYYADSVKGRFTISRDNAKNTVYLEMNSLKPEDTAVYYCNAAYSYRPDPKGYDYWGQGTQVTVSS | low polyreactivity
QVQLVESGGGLVQAGGSLRLSCAASGYTFYPYAMGWYRQAPGKERELVAAISGGASTYYADSVKGRFTISRDNAKNTVYLHMNSLKPEDTAVYYCAVSVYTYVVWYVAATYDYWGQGTQVTVSS | low polyreactivity
QVQLVESGGGLVQAGGSLRLSCAASGYTFYRYAMGWYRQAPGKERELVATISRGGSTDYADSVKGRFTISRDNAKNTVYLQMNSLKPEDTAVYYCAARAFSRLTTFYYWGQGTQVTVSS | high polyreactivity
QVQLVESGGGLVQAGGSLRLSCAASGYTFYSNAMGWYRQAPGKERELVAVISRGGGTYYADSVKGRFTISRDNAKNTVYLQMNSLKPEDTAVYYCARRIGHGSRPYWLETWRYPYEYWGQGTQVTVSS | low polyreactivity
QVQLVESGGGLVQAGGSLRLSCAASGYTFYVYAMGWYRQAPGKERELVAAISSDTGRTYYADSVKGRFTISRDNAKNTVYLQMNSLKPEDTAVYYCAKRRVYGGYDYWGQGTQVTVSS | low polyreactivity

Sequence | polyreactivity (PSR sort gate)
QVQLVESGGGLVQAGGSLRLSCAASGYTFYWNVMGWYRQAPGKERELVAVIDWSGGSTHYADSVKGRFTISRDNAKNTVYLQMNSLKPEDTAVYYCAAESVYTWYYQDDDDYWGQGTQVTVSS | low polyreactivity
QVQLVESGGGLVQAGGSLRLSCAASGYTIESYGMGWYRQAPGKDREMVAAIDWSGGSTYYADSVKGRFTISRDNAKNTVYLQMNSLIPEDTAVYYCNRDSAGPGDVILAYTGNDYWGQGTQVTVSS | low polyreactivity
QVQLVESGGGLVQAGGSLRLSCAASGYTIRANAMGWYRQAPGKERELVAAISRSGGSTYYADSVKGRFTISRDNAKNTVYLQMNSLKPEDTAVYYCNTRQQYQFNYWGQGTQVTVSS | high polyreactivity
QVQLVESGGGLVQAGGSLRLSCAASGYTISRYAMGWYIQAHGKERQLVAAISSRGGSTYYADSVKGRFTISRDNAKNTVYLQMNSLNPEDTADYYWAEDYGVGYGIVGSYYWGQGTQVTVSS | high polyreactivity
QVQLVESGGGLVQAGGSLRLSCAASGYTITQNAMGWYRQAPGKERELVASITSGGSTDYADSVKGRFTISRDNAKNTVYLQMNSLKPEDTAVYYCAAGTATDVASIGATKDYDYWGQGTQVTVSS | low polyreactivity
QVQLVESGGGLVQAGGSLRLSCAASGYTIYYYAMGWYRQAPGKERELVAVITSRGPRTYYADSVKGRFTISRDNAKNTVYLQMNSLKPEDTAVYYCNKARGVAYDWGQGTQVTVSS | high polyreactivity
QVQLVESGGGLVQAGGSLRLSCAASGYTLGPYAMGWYRQAPGKERELVATISSAGNTNYADSVKGRFTISRDNAKNTVYLQMNSLKPEDTAVYYCAAAIWYGFGGASGGTYYYWGQGTQVTVSS | high polyreactivity
QVQLVESGGGLVQAGGSLRLSCAASGYTLNTYAMGWYRQAPGKERELVAAITWSGGRTYYADSVKGRFTISRDNAKNTVYLQMNSLKPEDTAVYYCNAVWRRSTGDSGYWGQGTQVTVSS | high polyreactivity
QVQLVESGGGLVQAGGSLRLSCAASGYTRFYAMGWYRHAPGKERELVAAISSSGGTTYYADSVKGRLTISRDNAKNTVYLQMNSLKPDDSAVYYCAKYVSYCRTLYEYWGQGTQVTVSS | high polyreactivity
QVQLVESGGGLVQAGGSLRLSCAASGYTSNMGWYRQAPGKERELVAAITSGGDGTYYADSVKGRFTISRDNAKNTVYLQMNSLKPEDTAVYYCAKRGRDYNYGRAGYYWGQGTQVTVSS | low polyreactivity
QVQLVESGGGLVQAGGSLRLSCAASGYTYRWYAMGWYRQAPGKEREMVAAINRNGGSTFYADSVKGRFTISRDNAKNSVYLQMNSLKPEDTAVYFCAARYSSLPRYLTDGLDYWGQGTQVTVSS | high polyreactivity
QVQLVESGGGLVQAGGSLRLSCAASHANAIGWYRQAPGKERELVAAITYRGGSTYYADSVKGRFTISRDNAKNTVYLQMNSLKPEDTAVYYCNTDVYLYVYDFGYNYWGQGTQVTVSS | low polyreactivity
QVQLVESGGGLVQAGGSLRLSCAASLRIFYSNAMGWSRQAPGKERELVAAISSSGGITYYADSVKGRFTISRDNAKNTVYLQMNSLKPEDTAVYYCAVDSRHYIRAFDHWGQGTQVTVSS | low polyreactivity
QVQLVESGGGLVQAGGSLRLSCAASLSIFYVNAMGWYRQAPGKESELVAAISFSGGTTYYADSVKGRFTISRDNAKNTVYLQMNSLKPEDTAVYYCNTPSSREMDYWGQGTQVTVSS | low polyreactivity
QVQLVESGGGLVQAGGSLRLSCAASMGWYRQAPGKERELVAAITTRTGTTYYADSVKGRFTISRDNAKNTVYLQMNSLKPEDTAVYYCSKRGYYRYYYWGQGTQVTVSS | high polyreactivity
QVQLVESGGGLVQAGGSLRLSCAASPNIFHTYGMGWYRQAPWKERELVAAITSDGGTYYADSVKGRFTISRDNAKNTVYLQMNSLNPEDSAVYYCAAYTYYYAIHAYWGQGSQVTVSS | low polyreactivity
QVQLVESGGGLVQAGGSLRLSCAASRIFRGYAMGWYRQAPGKERELVAAIRRGGSTNYADSVKGRFTISRDNAKNTVYLQMNCLKPEVTAVYYCNAYLYLPRYDYWGQGTQVTVSS | high polyreactivity
QVQLVESGGGLVQAGGSLRLSCAASRITLNRNAMGWYRQAPGKERELVARISRRGGTTYYADSVKGRFTISRDNENNTVYLQMNSLKPEDTAVYYFNAGPYGGNPFDYWGQGPQVTVSS | high polyreactivity
QVQLVESGGGLVQAGGSLRLSCAASRITSYGYAMGWYRQAPGKERELVAAISRSGGTTYYADSVKGRFTISRDNAKNTVYVQMNILKPEDTAVYYCAVGKSHRGGGVTKFNYWGQGTQVTVSS | low polyreactivity
QVQLVESGGGLVQAGGSLRLSCAASRLIFRGNDMGWYRQAPGKERELLAGINSSGSTNYADSVKGRFTISRDNAKNTVYLHMNSLKPEDTAVYYCAARAIVSFDYWGQGTQVTVSS | low polyreactivity
